Publication PMC3229523, “Identification of Lactoferricin B Intracellular Targets Using an Escherichia coli Proteome Chip” (PLoS ONE, 2011)
Ends that are not written are not given here. * marks the point of attachment. Biotin = O=C1N[C@H]2[C@H](CS[C@H]2CCCCC(=O)*)N1

Assays:
Assay in all cases: peptide or protein array; E. coli proteome chip: purified His-tagged proteins printed in duplicate on Fullmoon slides, blocked with 1% BSA; 10 nM N-terminal biotinylated LfcinB with 1% BSA, room temperature, 1 h; detected with DyLight 649-labeled streptavidin, ratio to DyLight 549-labeled anti-His antibody; ProCAT normalisation, local cut-off; triplicate chips
Settings in all cases: both partners purified
YhhI = target: T1, YhhI (E. coli K-12, UniProt P28912 1-378)
T1 construct: YhhI, E. coli K-12
T1 sequence (looked up): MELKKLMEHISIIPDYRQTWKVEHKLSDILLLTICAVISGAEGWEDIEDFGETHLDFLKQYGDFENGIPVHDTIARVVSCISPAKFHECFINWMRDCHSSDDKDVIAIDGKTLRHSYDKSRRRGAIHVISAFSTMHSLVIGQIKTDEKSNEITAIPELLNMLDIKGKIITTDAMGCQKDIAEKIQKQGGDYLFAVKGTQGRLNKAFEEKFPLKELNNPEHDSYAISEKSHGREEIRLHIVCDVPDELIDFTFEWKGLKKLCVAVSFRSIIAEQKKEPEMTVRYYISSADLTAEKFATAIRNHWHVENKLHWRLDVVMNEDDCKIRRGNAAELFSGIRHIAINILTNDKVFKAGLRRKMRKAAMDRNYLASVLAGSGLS

BasR = target: T2, BasR (E. coli K-12, UniProt P30843 1-222)
T2 construct: BasR, E. coli K-12
T2 sequence (looked up): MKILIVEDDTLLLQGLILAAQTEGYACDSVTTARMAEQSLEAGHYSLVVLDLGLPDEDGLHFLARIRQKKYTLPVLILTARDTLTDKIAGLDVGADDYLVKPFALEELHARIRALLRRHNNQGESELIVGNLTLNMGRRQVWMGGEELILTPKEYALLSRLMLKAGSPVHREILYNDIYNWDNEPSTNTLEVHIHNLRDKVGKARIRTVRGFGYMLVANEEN

YehS = target: T3, YehS (E. coli K-12, UniProt P33355 1-156)
T3 construct: YehS, E. coli K-12
T3 sequence (looked up): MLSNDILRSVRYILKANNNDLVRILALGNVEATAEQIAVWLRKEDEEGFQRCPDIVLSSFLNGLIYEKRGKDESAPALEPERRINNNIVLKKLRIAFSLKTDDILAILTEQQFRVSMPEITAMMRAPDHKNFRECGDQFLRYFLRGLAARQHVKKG

RfaD = target: T4, RfaD (E. coli K-12, UniProt P67910 1-310)
T4 construct: RfaD, E. coli K-12
T4 sequence (looked up): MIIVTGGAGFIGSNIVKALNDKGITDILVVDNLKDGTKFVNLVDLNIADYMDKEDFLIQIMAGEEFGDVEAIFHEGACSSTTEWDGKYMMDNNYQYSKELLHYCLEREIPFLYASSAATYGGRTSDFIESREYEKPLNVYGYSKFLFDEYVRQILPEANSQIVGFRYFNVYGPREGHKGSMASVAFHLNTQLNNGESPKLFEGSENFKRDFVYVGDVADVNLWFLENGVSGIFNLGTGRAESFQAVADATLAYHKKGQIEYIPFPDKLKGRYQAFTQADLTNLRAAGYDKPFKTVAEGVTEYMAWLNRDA

YjeS = target: T5, YjeS (E. coli K-12, UniProt P39288 1-379)
T5 construct: YjeS, E. coli K-12
T5 sequence (looked up): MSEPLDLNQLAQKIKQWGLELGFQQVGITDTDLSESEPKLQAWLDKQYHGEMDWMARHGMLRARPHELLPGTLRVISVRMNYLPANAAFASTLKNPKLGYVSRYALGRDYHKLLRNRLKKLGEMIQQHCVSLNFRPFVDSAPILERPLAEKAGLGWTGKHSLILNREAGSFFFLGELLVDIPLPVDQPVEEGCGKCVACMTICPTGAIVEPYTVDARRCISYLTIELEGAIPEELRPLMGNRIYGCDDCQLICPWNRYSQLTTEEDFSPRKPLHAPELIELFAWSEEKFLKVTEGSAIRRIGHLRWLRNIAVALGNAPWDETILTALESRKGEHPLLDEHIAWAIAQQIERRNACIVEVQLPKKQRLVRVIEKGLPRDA

YihS = target: T6, YihS (E. coli K-12, UniProt P32140 1-413)
T6 construct: YihS, E. coli K-12
T6 sequence (looked up): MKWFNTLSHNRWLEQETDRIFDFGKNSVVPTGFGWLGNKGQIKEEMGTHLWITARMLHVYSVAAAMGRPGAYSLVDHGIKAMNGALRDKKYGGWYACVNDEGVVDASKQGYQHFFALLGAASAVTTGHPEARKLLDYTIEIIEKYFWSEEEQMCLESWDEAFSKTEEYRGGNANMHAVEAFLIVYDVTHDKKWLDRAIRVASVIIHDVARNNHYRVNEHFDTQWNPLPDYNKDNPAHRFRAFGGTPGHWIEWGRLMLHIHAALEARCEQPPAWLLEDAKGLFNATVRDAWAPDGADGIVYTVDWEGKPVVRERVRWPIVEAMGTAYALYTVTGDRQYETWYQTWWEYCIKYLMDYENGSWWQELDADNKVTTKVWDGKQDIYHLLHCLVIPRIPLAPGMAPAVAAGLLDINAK

Measured: binding result

B1: N-terminal biotinylated Lactoferricin B (peptide, UniProt P24627 36-60, looked up)
peptide: Biotin-FKCRRWQWRMKKLGAPSITCVRRAF
modifications: ends and bridges not checked
notes: lactoferricin B (LfcinB), cationic antimicrobial peptide of 25 amino acids; also called biotinylated LfcinB; biotin-labeled LfcinB; source: bought: Kelowna Inc
binds: all assays above
